Earlier results as cited in publication PMC12786138.
Several values for one entry are separate records, joined by “and”; a condition that tells them apart may be missing. Equal entries are not always repeated.

Experiments:
[1] = target: SIRPα (Homo sapiens) (UniProt P78324); test: SPR
[2] = target: SIRPα (Mus musculus) (UniProt P97797); test: SPR
[3] = target: SIRPα (Homo sapiens) (UniProt P78324); test: colorimetric
[4] = target: CD47 (Homo sapiens) (UniProt Q08722); test: radiolabel competition
Chain of CD47 (Homo sapiens) (Q08722 19-323): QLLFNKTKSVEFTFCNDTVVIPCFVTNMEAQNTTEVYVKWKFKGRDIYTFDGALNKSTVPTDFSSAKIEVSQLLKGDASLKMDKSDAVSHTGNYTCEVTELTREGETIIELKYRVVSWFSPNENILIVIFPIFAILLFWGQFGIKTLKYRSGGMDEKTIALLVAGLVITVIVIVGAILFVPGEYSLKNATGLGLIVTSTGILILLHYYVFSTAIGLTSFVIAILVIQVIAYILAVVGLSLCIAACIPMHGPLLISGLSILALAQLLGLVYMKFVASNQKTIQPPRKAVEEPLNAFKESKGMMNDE

Chain of CD47 ECD (from UniProt Q08722) (Q08722 19-323): as above
Chain of SIRPα (Homo sapiens) (P78324 31-373): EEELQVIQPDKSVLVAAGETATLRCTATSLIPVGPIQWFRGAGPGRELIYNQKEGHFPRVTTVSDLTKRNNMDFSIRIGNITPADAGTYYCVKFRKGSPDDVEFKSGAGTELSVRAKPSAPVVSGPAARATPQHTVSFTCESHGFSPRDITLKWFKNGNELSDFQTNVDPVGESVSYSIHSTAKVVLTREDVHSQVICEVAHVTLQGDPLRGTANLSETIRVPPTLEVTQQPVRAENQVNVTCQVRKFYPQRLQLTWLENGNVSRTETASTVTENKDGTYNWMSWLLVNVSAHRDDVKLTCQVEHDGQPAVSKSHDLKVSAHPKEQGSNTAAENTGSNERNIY
Chain of SIRPα (Mus musculus) (P97797 32-373): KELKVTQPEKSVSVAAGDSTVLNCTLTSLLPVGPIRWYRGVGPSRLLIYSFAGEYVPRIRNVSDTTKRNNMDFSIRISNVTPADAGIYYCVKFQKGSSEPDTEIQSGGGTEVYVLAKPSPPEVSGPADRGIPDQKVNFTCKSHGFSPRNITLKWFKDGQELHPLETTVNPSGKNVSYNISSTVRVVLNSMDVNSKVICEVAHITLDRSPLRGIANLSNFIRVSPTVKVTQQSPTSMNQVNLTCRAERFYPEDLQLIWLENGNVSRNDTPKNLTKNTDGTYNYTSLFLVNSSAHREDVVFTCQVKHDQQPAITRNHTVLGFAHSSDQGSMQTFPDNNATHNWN
Chain of CD47 ECD (from UniProt Q61735) (Q61735 19-303): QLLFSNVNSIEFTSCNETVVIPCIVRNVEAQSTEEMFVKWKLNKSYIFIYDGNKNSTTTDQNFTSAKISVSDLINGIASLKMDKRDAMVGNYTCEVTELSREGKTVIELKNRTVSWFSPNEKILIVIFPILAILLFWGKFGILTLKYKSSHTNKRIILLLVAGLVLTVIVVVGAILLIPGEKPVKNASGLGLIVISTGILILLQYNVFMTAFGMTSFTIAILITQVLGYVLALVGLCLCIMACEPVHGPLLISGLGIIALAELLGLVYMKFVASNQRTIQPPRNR
Chain of CD47 ECD-alkaline phosphatase ECD (Q08722 19-323): as the sequence (Q08722 19-323) above
Chain of TSP1 (P07996 19-1170): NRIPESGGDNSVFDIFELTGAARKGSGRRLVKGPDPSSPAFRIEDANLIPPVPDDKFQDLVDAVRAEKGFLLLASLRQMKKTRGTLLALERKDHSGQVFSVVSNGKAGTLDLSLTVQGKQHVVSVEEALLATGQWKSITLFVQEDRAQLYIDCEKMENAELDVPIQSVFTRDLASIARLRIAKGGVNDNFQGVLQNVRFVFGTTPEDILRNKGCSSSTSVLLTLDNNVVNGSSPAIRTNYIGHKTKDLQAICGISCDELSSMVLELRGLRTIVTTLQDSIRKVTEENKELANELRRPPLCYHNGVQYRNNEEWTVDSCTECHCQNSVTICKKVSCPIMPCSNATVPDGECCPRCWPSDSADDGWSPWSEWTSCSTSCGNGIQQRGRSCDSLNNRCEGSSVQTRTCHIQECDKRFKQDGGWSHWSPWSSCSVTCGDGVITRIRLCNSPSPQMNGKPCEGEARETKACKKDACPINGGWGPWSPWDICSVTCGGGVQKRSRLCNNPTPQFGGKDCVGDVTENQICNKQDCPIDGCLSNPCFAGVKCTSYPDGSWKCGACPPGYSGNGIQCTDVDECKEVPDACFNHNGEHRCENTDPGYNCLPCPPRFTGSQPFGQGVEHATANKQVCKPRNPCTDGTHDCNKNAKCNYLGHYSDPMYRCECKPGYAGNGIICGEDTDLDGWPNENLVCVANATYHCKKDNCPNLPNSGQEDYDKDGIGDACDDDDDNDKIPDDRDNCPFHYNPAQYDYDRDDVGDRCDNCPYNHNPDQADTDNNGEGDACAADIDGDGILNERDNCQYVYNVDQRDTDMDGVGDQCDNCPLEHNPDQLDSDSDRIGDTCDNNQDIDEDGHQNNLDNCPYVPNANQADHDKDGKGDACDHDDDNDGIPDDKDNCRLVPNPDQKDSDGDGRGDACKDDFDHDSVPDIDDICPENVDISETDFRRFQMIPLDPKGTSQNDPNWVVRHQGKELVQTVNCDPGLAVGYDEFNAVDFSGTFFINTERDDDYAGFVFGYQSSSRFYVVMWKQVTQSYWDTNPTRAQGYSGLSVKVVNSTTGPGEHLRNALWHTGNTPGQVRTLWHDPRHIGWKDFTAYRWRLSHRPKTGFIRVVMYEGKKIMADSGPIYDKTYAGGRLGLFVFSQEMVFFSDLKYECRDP

Substance	Kd [1]	Kd [2] [nM]	Kd [3] [nM]	Kd [4] [nM]
CD47 ECD (from UniProt Q08722)	1200 nM and 1000 nM and 200 nM	80	–	–
CD47 ECD (from UniProt Q61735)	> 30000 nM	4700	–	–
CD47 ECD-alkaline phosphatase ECD (from UniProt Q08722)	–	–	10	–
TSP1 (from UniProt P07996)	–	–	–	0.012
